Assay results as given in patent US7297332B2, “Protease, a gene therefor and the use thereof” (Korean Research Institute of Bioscience and Biotechnology, priority 2000, dated 2007).

Experiments:
azocasein [1] = experiment: Effect of heat on the activity and stability of the protease; format: biochemical
Protocol: (§1) Enzyme activity of the protease was measured according to the method described by Braun & Shmitz (Braun, V. & Schmitz, G., Arch. Microbiol. 124, 55-61, 1980). A substrate solution was prepared by dissolving 0.24 g of azocasein in 10 ml of 50 mM phosphate buffer (pH 7.5). The 300 □ of the substrate solution was mixed with 100 □ of bacterial culture solution and reacted at 37° C. for 30 minutes. Then, 300 □ of 10% trichloride acetate was added to the reaction solution and incubated at ambient temperature for 1 hour. The reaction solution was centrifuged at 7,000 rpm until pellet and supernatant was separated substantially. After adding 30 0 of 10% sodium hydroxide (NaOH) to the supernatant, the absorbance was measured at 420 nm. The enzymatic titer was defined as 1 unit by the 1.0 fold increment of absorbance value.
In order to examine the effect of heat on the activity and stability of the protease, the relative enzyme activity was measured at temperatures ranging from 4° C. to 80° C. The measurement of the activity was performed according to the method described in Example 3(1).

azocasein [2] = experiment: Effect of pH on the activity and stability of the protease; format: biochemical; conditions: for relative activity: 30 minutes
Protocol: as §1
In order to examine the pH-dependence of the protease of the invention, the inventors prepared various substrate solution with different pH. The each substrate solution was buffered with citrate-phosphate(pH 3.0 to 7.0), sodium phosphate(pH 7.0 to 9.0), Tris-HCl(pH 7.0 to 10.0), and glysine-caustic soda(pH 9.0 to 12.0), respectively. The relative protease activity was measured after mixing enzyme with each of the above substrate solution at 37° C. for 30 minutes. The measurement of the relative protease activity was followed by the method described in Example 3(1).

[3] = Protein eluted from raw skin (leather deliming application); conditions: 0.5% of protease
Protocol: A 20 g of raw skin finely cut into pieces of suitable size and 14 ml of distilled water was mixed in a 50 ml test tube. Then, 0.5% sodium bisulfite and 0.5% ammonium sulfate on the basis of the weight of skin was added thereto and the mixture was incubated for 15 minutes at 26° C. Subsequently, 0.2% of detergent and 0.5% of deliming agent was added thereto and waited for 30 minutes and 1 hour, respectively, before measuring the amount of protein eluted from the skin. In the presence of the 0.5% of protease, the protein eluted amounted to 1054 mg/ml and 1062 mg/ml after 30 minutes and 60 minutes, respectively. In the absence of the protease, the protein eluted amounted to 304.5 mg/ml and 329.5 mg/ml after 30 minute and 60 minutes, respectively.

azocasein [4] = experiment: Effects of salts on the activity of the protease; format: biochemical; conditions: for relative activity: 37° C., 4 hours
Protocol: as §1
In order to examine effects of salts on the activity of protease, the relative enzyme activity was measured at 37° C. for 4 hours in the presence of various concentrations of sodium chloride solution ranging from 0 to 1700 mM. The relative activity was measured according to the method described in Example 3(1). For comparison, the protease derived from Serratia marcescens SM6 was used as a control.

[5] = test system: albumin, casein, collagen, elastin and hemoglobin; experiment: Activity of the protease on various substrates; format: biochemical; conditions: all the other substrates including hemoglobin
Protocol: In order to examine the degrading ability of the enzyme against various substrates, the enzyme reactions were performed on substrates such as albumin, casein, collagen, elastin and hemoglobin. […] In 24 hour reaction, all the other substrates including hemoglobin achieved at least 45.

B1: protease: zinc-binding metalloprotease from Aranicola proteolyticus HY-3, amino acid sequence SEQ ID NO. 1, apparent molecular weight about 51.5 kDa (protein, listed as Aranicola proteolyticus)
chain: MQSTKKAIEITESSLAAASSAYNAVDDLLHYHERGNGIQVNGKDSFSTEQAGLFITRENQTWNGYKVFGQPVKLTFSFPDYKFSSTNVAGDTGLSKFSAEQQQQAKLSLQSWSDVANITFTEVGAGQKANITFGNYSQDRPGHYDYDTQAYAFLPNTIYQGQNLGGQTWYNVNQSNVKHPASEDYGRQTFTHEIGHALGLSHPGDYNAGEGNPTYRDASYAEDTREFSLMSYWSETNTGGDNGGHYAAAPLLDDISAIQHLYGANQTTRTGDTVYGFNSNTGRDFLSTTSNPQKVIFAAWDAGGNDTFDFSGYTANQRINLNEKSFSDVGGLKGNVSIAAGVTIENAIGGSGNDVIVGNAANNVLKGGAGNDVLFGGGGADELWGGAGKDTFVFSAVSDSAPGASDWIKDFQKGIDKIDLSFFNQGAQGGDQIHFVDHFSGAAGEALLSYNASNNVSDLALNIGGHQAPDILVKIVGQVDVATDFIV
modifications: BINDING (192) Zn binding site
notes: 1, apparent molecular weight about 51.5 kDa
activity maintained at low temperature (azocasein [1]; 4° C. to 15° C., relative to maximum activity): about a half of the maximum activity | temperature of maximum activity (azocasein [1]; measured from 4° C. to 80° C.): 37 °C | relative activity (azocasein [1]; temperature 4 ° C.): 43% | relative activity (azocasein [1]; temperature 10 ° C.): 45% | relative activity (azocasein [1]; temperature 15 ° C.): 50% | relative activity (azocasein [1]; temperature 20 ° C.): 76% | relative activity (azocasein [1]; temperature 25 ° C.): 81% | relative activity (azocasein [1]; temperature 30 ° C.): 93% | relative activity (azocasein [1]; temperature 37 ° C.): 100% | relative activity (azocasein [1]; temperature 45 ° C.): 28% | relative activity (azocasein [1]; temperature 50 ° C.): 22% | relative activity (azocasein [1]; temperature 60 ° C.): 20% | relative activity (azocasein [1]; temperature 70 ° C.): 14% | relative activity (azocasein [1]; temperature 80 ° C.): 3% | Ea value (hydrolysis of azocasein), activation energy in Arrenius plot (azocasein [1]; temperatures between 4° C. and 37° C.): 10.2 kJ/mol | relative activity (azocasein [1]; temperatures between 20° C. to 40° C.): at least 75% | pH of maximum activity (azocasein [2]; azocasein substrate): 8.0 | relative activity (azocasein [2]; pH 3.0, 37° C.): 43% | relative activity (azocasein [2]; pH 4.0, 37° C.): 66% | relative activity (azocasein [2]; pH 5.0, 37° C.): 73% | relative activity (azocasein [2]; pH 5.5, 37° C.): 77% | relative activity (azocasein [2]; pH 6.0, 37° C.): 79% | relative activity (azocasein [2]; pH 7.0, 37° C.): 81% | relative activity (azocasein [2]; pH 7.5, 37° C.): 83% | relative activity (azocasein [2]; pH 8.0, 37° C.): 100% | relative activity (azocasein [2]; pH 8.5, 37° C.): 99% | relative activity (azocasein [2]; pH 9.0, 37° C.): 90% | relative activity (azocasein [2]; pH 9.5, 37° C.): 80% | relative activity (azocasein [2]; pH 10.0, 37° C.): 78% | relative activity (azocasein [2]; pH 11.0, 37° C.): 76% | relative activity (azocasein [2]; pH 12.0, 37° C.): 71% | activity relative to maximum activity (azocasein [2]; pH of 5.0 to 12.0): at least 70% | protein eluted from the skin ([3]; after 30 minutes): 1050 µg/mL | protein eluted from the skin ([3]; after 60 minutes): 1060 µg/mL | activity under high salt concentrations (azocasein [4]; high salt concentrations): retains high activity | relative activity (azocasein [4]; salt concentration 0 mM NaCl): 100% | relative activity (azocasein [4]; salt concentration 170 mM NaCl): 134% | relative activity (azocasein [4]; salt concentration 340 mM NaCl): 173% | relative activity (azocasein [4]; salt concentration 510 mM NaCl): 200% | relative activity (azocasein [4]; salt concentration 680 mM NaCl): 215% | relative activity (azocasein [4]; salt concentration 1020 mM NaCl): 203% | relative activity (azocasein [4]; salt concentration 1360 mM NaCl): 196% | relative activity (azocasein [4]; salt concentration 1700 mM NaCl): 155% | degrading ability (albumin in 24 hour reaction defined as 100) [5]: at least 45
